According to article PMC1952217 (The EMBO Journal, 2007):

Legend:
Assay in all cases: FRET or BRET
[1] = molecular target: T1, Smc1 tagged at its C-terminus with CFP or YFP (S. cerevisiae, UniProt P32908 1-1225)
T1 sequence: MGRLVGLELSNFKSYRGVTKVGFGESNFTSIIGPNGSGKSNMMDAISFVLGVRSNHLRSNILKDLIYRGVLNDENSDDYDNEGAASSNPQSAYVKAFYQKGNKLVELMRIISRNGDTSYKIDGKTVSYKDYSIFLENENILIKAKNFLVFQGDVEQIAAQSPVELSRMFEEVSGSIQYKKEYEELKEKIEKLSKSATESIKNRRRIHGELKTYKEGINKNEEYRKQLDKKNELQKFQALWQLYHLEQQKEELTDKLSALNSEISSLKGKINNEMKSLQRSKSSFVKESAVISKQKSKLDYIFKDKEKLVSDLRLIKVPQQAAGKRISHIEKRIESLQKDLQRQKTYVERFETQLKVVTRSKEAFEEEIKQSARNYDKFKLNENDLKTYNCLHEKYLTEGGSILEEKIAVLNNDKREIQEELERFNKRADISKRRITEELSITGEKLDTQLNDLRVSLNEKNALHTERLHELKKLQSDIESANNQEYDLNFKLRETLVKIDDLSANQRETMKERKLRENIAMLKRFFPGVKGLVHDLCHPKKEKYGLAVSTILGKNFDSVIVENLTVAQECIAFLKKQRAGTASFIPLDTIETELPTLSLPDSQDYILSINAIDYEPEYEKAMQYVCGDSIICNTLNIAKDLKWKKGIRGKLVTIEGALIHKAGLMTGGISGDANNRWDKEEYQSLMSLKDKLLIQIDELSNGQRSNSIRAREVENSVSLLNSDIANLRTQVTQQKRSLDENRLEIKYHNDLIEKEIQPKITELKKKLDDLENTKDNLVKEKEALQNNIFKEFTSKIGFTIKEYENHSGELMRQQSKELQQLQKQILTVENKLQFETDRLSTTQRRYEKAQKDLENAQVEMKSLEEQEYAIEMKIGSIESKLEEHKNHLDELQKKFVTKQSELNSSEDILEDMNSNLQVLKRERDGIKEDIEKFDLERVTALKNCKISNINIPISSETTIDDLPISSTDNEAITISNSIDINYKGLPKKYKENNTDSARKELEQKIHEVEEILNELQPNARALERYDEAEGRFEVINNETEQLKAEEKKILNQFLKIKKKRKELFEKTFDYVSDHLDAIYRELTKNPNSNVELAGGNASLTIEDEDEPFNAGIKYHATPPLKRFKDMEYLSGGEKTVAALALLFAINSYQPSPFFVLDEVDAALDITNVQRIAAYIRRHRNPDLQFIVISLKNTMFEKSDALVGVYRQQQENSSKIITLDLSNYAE

[2] = molecular target: T2, Scc1 with CFP or YFP at its C-terminus (S. cerevisiae, UniProt Q12158 1-566)
T2 sequence: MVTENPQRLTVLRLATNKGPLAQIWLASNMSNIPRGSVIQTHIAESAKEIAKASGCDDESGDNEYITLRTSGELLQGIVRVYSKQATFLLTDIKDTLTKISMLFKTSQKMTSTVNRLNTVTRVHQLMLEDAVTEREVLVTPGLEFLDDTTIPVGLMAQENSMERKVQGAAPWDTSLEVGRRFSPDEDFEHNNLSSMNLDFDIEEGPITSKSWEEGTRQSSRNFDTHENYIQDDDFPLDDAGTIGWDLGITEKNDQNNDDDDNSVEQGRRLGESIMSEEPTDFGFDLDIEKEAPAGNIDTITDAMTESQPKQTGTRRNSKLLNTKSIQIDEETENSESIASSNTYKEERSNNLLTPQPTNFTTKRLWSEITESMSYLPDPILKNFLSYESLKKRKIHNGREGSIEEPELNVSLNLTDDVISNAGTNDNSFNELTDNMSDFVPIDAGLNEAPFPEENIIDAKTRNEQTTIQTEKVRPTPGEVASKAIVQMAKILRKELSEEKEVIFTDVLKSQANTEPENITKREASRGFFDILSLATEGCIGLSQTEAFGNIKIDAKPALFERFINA

[3] = molecular target: T3, Smc3 tagged at its C-terminus with CFP or YFP (S. cerevisiae, UniProt P47037 1-1230)
T3 sequence: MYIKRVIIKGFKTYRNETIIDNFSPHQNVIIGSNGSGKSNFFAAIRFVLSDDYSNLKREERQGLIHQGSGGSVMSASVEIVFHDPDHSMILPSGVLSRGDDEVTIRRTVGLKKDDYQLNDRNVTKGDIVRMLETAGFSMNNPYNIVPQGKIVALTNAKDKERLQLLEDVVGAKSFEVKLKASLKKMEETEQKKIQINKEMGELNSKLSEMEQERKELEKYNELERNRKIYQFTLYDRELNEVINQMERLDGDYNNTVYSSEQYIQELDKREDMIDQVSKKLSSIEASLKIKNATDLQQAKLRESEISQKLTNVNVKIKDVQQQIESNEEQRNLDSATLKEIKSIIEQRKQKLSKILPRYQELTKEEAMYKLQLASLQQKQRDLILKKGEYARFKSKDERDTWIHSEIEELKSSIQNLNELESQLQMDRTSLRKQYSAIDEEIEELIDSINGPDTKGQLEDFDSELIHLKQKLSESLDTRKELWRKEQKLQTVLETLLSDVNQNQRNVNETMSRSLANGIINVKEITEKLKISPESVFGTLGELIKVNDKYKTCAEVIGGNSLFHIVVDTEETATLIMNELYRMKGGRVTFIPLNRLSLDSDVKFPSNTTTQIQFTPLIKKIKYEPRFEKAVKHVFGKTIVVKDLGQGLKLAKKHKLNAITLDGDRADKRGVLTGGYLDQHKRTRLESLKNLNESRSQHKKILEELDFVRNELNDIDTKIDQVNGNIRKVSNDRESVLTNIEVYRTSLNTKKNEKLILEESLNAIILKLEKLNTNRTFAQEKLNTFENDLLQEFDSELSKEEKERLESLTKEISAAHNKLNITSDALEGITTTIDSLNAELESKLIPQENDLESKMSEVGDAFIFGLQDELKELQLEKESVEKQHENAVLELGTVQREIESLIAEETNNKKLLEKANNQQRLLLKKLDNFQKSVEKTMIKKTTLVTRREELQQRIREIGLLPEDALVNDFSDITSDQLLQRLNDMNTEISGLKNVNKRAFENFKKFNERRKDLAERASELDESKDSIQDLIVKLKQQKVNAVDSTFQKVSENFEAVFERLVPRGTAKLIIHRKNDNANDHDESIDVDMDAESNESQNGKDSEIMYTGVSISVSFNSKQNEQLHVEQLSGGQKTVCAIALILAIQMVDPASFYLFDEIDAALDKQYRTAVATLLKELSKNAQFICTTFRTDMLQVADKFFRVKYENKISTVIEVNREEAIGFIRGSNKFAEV

FRETR [1]: 1.35 | FRETR [2]: 1.4 | FRETR [3]: 1.37
B1: Scc3 with CFP or YFP at its C-terminus (natural protein)
chain: MTAVRRSTRIRTKSQVIEEDYDDEQNTSAQHVESDKITAKTQHEEEEEQDTGESEESSSEDDYEDQDDDDYVDTATAKRKSRKRKPKSASNTSSKRQKKKPTSAQKSAVSHAPAYHRSKKDQDQYLEIAKDFQPTELFDILSTSEDVSIEELLREWLETYSENRDKFLQEFINLLLNCCGSVARVEDHDVHSNESSNETIGEIQLLFQRQKLHEFYLLISKENKKRKNFKMGPLYQNFAEFMTKLLEVANDLQLLYVESDEDDTQIVTGNLVLDLLTWLSSFSVCKIRCFRYISTLTLYLFQDYLTQQAVNLEKNYLAKLSKQLSLEEKKKRPNNKTLEKLESTIAETQGSKVVIDSIIDNIVKLCFVHRYKDVSDLIRSESMLHLSIWIKNYPEYFLKVTFLKYFGWLLSDNSVSVRLQVTKILPHLIIQNHNSKSTDNSAIRQVFERFKTKILEVAIRDVNLDVRIHSIQVLTEASSLGYLDDSEILIISSLMFDEEFDPFKTSSFNKRSKFLSTVAKFLARVIKEKFDEFIKTHEDLPKEVDGLEVGPVVQVGIFIKILNDSLIYHLKDCAEVDSRTKIRMLTQAAEFLSPYISTHLKTICNLLISDTESNELIQKLQNSANNNSDDEDVDDEELDITPLFPIDRNSTILYLNVFHGLCAGANNPKIQTKDSVKEIVLPLFYDLLNAASIESADILCPLLESFITFSLDDWISIGYETELKKITDKTIKAFMDSTIGNSKVDMKYDIFAKFIHHIHHFEKKELQEKFLNQIATLKIHLKKFLQEKMDPNNSRDDYKDLTCSLYELYINKLTILGRDYPIEVDEELLQLFLNNFVSRIPIMFQDFDDSTAQEINFKMLVLLATWNLEKWREIIEKVRDYENSISKDLRSVWKPIAAIIGRLNTLVISLAATNETFENINSLFYLKWSACTSLMDIIVAIKIFELKLPADATTWRYSMSEQFPFYLHDNASKVLLKIFLYLESLFAKQVDVQLERVADEDANLNDLPETGFFENIETEFLLFTVKLKGLMKLNILDERFASRVALNKEKLGPLFKKIVDDTIMENPEPNKKNIQKAKSNQTQREKAPLQPNSERETDHANTENNDPDIPMTIDLEPIEESSQNNSELAPIEEHPTVVDAIDNSDEITQD
